Data from patent US20210363214A1 (University of Washington, published 2021).

B1: TMHC3 (designed binder)
chain: MSEELRAVADLQRLNIELARKLLIAVALLQLLNILLVMLTSELTDEKTILWMIVIVMFLSLAIVIVALREIRRAKEESRKIADESR
notes: De novo designed hairpin, entered as one protomer; It self-associates into a homotrimer with six TM helices; also called designed transmembrane trimer TMHC3; not shown: C-terminal hexa-histidine tag from pET-29b (gene without stop codon, NdeI/XhoI)
B2: TMHC2 (transmembrane hairpin C2) (designed binder)
chain: MTRTEIIRELERSLRLQLVLAIFLMALLIVLLWLQQNGSSNNNVNYLLIVILVLVLVIVALAVTQKYLVEQLKRQD
notes: De novo designed two-helix transmembrane hairpin, entered here as one protomer; It was expressed from pET-28b with an N-terminal hexa-histidine tag and a thrombin site

Experiments:
[1] = biological target: the molecule itself; test: AUC in detergent solution; self-association to homotrimer
Description: We used a similar approach to design a transmembrane trimer with six membrane spanning helices (TMHC3) based on the 5L6HC3_1 scaffold (PDB ID: 5IZS). Guided by the results with the C2 designs, we chose a hydrophobic span of ˜30 Å (20 residues) (FIG. 4A). The design was expressed in E. coli and purified to homogeneity, eluting on a gel filtration column as a single homogeneous species (FIG. 5C).
(§1) Analytical ultracentrifugation (sedimentation velocity and sedimentation equilibrium) experiments were carried out using a Beckman XL-I analytical ultracentrifuge (Beckman Coulter) equipped with an eight-cell An-50 Ti rotor. The proteins were run in 20 mM sodium phosphate, pH 7.0, containing 200 mM NaCl supplemented with 0.5% C8E5, no density matching was necessary and the solvent density was calculated as 1.0075 g mL⁻¹. The partial specific volume of the protein was calculated by the program Sednterp™ (37). For sedimentation velocity, absorbance at 230 nm versus radial location was recorded during centrifugation at 50,000 rpm at 20° C. For sedimentation equilibrium, data were collected by UV detector at 20° C. for at least two protein concentrations at three rotor speeds. The data of sedimentation velocity and sedimentation equilibrium were analyzed using Sedfit™ and Sedphat™.

[2] = biological target: the molecule itself; test: AUC in detergent solution (C8E5); self-association to homodimer
Method: The dimer design with the shortest hydrophobic span (15 residues, TMHC2_S) was poorly behaved in both E. coli and mammalian cells, but the dimer designs with longer spans TMHC2, TMHC2_E and TMHC2_L localized to the cell membrane when expressed in HEK293T cells (data not shown) and in E. coli. The designed proteins were purified by extracting the E. coli membrane fraction with detergent, followed by nickel-NTA chromatography and size exclusion chromatography (SEC) with a yield of ˜2 mg/L (FIG. 6A-B). […] For the single chain scTMHC2 the major species in SEC was the monomer with a small side peak that was readily removed by purification (FIG. 6B).
as §1, with “For sedimentation equilibrium, data were collected by UV detector at 20° C. for at least two protein concentrations at three rotor speeds.” left out

Protein	binding result [1]	binding result [2]
B1	binds	–
B2	–	binds
